The target of this experiment is ARPC1A-STREP (human) (UniProt Q92747). The experiment can be described thus: co-purification of a co-expressed recombinant complex; Arp2/3-C1A complexes with ARPC5, ARPC5L or hybrids co-expressed in Sf21 cells and purified as previously described (Abella et al., 2016); Coomassie-stained gel, band quantification with Fiji normalised to ARPC2; immunoblot of the purified complexes.
Sequence of UniProt Q92747 (Q92747 whole entry): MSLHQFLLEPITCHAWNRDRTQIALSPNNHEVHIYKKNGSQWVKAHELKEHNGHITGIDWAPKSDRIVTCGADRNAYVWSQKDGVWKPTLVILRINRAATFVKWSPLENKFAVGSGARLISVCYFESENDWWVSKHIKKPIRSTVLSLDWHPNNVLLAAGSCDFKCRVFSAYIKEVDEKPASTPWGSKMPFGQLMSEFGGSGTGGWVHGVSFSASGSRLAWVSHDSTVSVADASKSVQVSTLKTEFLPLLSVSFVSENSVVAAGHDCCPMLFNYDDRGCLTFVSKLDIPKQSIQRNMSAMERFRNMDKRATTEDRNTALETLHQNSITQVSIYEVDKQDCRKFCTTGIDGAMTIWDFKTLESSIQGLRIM

Sequence of ARPC5L (Q9BPX5 whole entry): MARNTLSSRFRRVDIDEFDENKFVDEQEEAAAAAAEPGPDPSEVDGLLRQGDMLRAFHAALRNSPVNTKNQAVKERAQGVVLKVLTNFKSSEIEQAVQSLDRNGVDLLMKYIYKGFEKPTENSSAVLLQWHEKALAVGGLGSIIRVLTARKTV

Consider “ARPC5L (from UniProt Q9BPX5 1-153) (natural protein)”, for which the gel band ratio to ARPC2 in the purified Arp2/3-C1A complex (subunit occupancy) was 0.52.

The values above are taken from article PMC7406314.
